According to PMC5775349:

Assays:
[1] = biological target: 40S ribosomes of S223A cells (S. cerevisiae | S. cerevisiae (endogenous in yeast cells)) (UniProt P26783); experiment: co-sedimentation; yeast lysate in TSM buffer (10 mM Tris-HCl pH7.4, 100 mM NaCl, 30 mM MgCl2), 10-40% sucrose gradient ultracentrifugation; fractions blotted with anti-HA and anti-Rio2; densitometry, duplicate experiments
[2] = biological target: 40S ribosomes of cells with WT uS7 (S. cerevisiae | S. cerevisiae (endogenous in yeast cells)) (UniProt P26783); experiment: as above

Rio2, endogenous (from UniProt P40160 1-425) (natural protein)
percent of Rio2 in the 40S fraction [1]: 28% | percent of Rio2 in the 40S fraction [2]: 41%
